Where two headings read alike, the source gives them in different places.

Experiment [1] concerns the target AM2 receptor (CLR-RAMP3) (human) (UniProt Q16602).
The target of experiment [2] is CGRP receptor (CLR-RAMP1) (human) (UniProt Q16602).
Experiment [3] addresses AM1 receptor (CLR-RAMP2) (human) (UniProt Q16602).
In experiment [4] the target is AM2 receptor (CLR-RAMP3) (human) (UniProt Q16602). The source holds these as a separate data set.
Experiment [5] has as its target CGRP receptor (CLR-RAMP1) (human) (UniProt Q16602). The source holds these as a separate data set.
Experiment [6] concerns the target AM1 receptor (CLR-RAMP2) (human) (UniProt Q16602). The source holds these as a separate data set.
The target in experiment [7] is AM2 receptor (CLR-RAMP3) (human) (UniProt Q16602). The source holds these as a separate data set.
Experiment [8] has as its target CGRP receptor (CLR-RAMP1) (human) (UniProt Q16602). This is another data set of the same source.
In experiment [9] the target is AM1 receptor (CLR-RAMP2) (human) (UniProt Q16602). This is another data set of the same source.
The target of experiment [10] is calcitonin receptor (CTR) (human).
In experiment [11] the target is amylin1 receptor (CTR-RAMP1) (human) (UniProt O60894).
Sequence of amylin1 receptor (CTR-RAMP1) (human) (O60894 whole entry, looked up): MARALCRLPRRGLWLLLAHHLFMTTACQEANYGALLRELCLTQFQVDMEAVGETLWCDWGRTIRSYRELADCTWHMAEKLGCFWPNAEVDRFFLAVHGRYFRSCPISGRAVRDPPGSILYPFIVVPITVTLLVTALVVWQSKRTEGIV

Sequence of AM1 receptor (CLR-RAMP2) (human) (Q16602 23-461, chain 1 of 2): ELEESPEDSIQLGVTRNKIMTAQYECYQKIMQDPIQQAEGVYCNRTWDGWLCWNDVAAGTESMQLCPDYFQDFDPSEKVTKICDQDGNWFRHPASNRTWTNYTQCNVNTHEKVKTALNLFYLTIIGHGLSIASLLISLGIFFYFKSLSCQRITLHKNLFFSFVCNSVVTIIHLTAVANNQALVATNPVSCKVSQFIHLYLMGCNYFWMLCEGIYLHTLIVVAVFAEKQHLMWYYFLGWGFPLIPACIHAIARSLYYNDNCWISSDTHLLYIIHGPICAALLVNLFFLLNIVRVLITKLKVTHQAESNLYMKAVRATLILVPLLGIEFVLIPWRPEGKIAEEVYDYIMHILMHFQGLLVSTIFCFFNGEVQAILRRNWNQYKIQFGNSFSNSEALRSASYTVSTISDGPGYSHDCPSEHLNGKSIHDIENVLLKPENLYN
Sequence of AM1 receptor (CLR-RAMP2) (human) (O60895 43-175, chain 2 of 2, further chain): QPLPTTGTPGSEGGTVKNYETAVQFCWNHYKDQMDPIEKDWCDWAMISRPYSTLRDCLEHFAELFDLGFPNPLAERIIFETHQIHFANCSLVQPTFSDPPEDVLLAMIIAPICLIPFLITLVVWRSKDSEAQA
Sequence of CGRP receptor (CLR-RAMP1) (human) (Q16602 23-461, chain 1 of 2): as the sequence (Q16602 23-461, chain 1 of 2) above
Sequence of CGRP receptor (CLR-RAMP1) (human) (O60894 27-148, chain 2 of 2, further chain): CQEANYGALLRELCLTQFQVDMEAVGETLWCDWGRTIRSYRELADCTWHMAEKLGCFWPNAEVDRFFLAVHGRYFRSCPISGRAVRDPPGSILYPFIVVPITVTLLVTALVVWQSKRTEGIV
Sequence of AM2 receptor (CLR-RAMP3) (human) (Q16602 23-461, chain 1 of 2): as the sequence (Q16602 23-461, chain 1 of 2) above
Sequence of AM2 receptor (CLR-RAMP3) (human) (O60896 24-148, chain 2 of 2, further chain): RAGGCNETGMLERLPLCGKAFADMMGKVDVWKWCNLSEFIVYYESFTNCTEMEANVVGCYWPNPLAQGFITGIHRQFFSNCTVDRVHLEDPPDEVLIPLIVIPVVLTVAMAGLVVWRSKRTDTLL
Sequence of calcitonin receptor (CTR) (human) (P30988 25-474): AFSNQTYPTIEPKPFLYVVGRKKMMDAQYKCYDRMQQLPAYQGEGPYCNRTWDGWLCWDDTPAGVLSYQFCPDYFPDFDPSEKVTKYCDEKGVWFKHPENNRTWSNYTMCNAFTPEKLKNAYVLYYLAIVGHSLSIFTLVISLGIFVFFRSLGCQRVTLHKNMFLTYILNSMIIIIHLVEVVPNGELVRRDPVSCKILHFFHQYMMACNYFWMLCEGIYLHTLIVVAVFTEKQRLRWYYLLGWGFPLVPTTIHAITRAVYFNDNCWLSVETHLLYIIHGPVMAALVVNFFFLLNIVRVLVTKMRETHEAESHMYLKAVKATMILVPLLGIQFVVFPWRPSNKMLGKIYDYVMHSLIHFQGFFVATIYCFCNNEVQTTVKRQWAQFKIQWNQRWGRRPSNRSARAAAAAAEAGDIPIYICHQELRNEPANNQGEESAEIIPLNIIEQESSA
Sequence of βCGRP(1-37) (P10092 82-118): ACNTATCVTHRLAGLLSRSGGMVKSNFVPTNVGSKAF

In the case of “AM2(8-22)-AM(29-38)-AM2(34-47) (peptide)”, the pEC50 of cAMP signaling, end-point concentration-response (CAMYEL BRET, COS-7) was 8.72 in [1], 8.09 in experiment [2] and 7.34 in experiment [3].
Turning to AM2/IMD(1-47) (peptide), the figures for the pEC50 of cAMP signaling, end-point concentration-response (CAMYEL BRET, COS-7) in [4], in [5] and in experiment [6] were 8.9, 7.81 and 7.66, respectively.
Consider AM2/IMD(8-47) (peptide), for which the pEC50 of cAMP signaling, end-point concentration-response (CAMYEL BRET, COS-7) in experiment [7] is 9.27; in [8] it was 9.17; in experiment [9] it was 8.51; in [4], 9.33; in experiment [5] it was 8.86; in experiment [6], 8.24.
For AM2/IMD(8-47) [R23K/R33K] (peptide), the pEC50 of cAMP signaling, end-point concentration-response (CAMYEL BRET, COS-7) in [7] was 8.74; in experiment [8], 8.22; in experiment [9], 7.59.
With AM2/IMD(8-47) [R23K] (peptide), the pEC50 of cAMP signaling, end-point concentration-response (CAMYEL BRET, COS-7) in experiment [7] is 9; in experiment [8] it was 8.51; in experiment [9], 7.62.
Consider AM2/IMD(8-47) [R23Q/R33K] (peptide), for which the pEC50 of cAMP signaling, end-point concentration-response (CAMYEL BRET, COS-7) in [7] is 7.75; in experiment [8], 7.5; in experiment [9], 6.9.
Consider AM2/IMD(8-47) [R33K] (peptide), for which the pEC50 of cAMP signaling, end-point concentration-response (CAMYEL BRET, COS-7) in experiment [7] amounted to 9.01; in experiment [8], 8.54; in experiment [9], 7.8.
On to AM2/IMD-53 (peptide), for which the pEC50 of cAMP signaling, end-point concentration-response (CAMYEL BRET, COS-7) in experiment [4] was found to be 8.84; in experiment [5], 8.36; in [6], 7.94.
As for “AM(13-38)-AM2(23-33)-AM(39-52) (peptide)”, the pEC50 of cAMP signaling, end-point concentration-response (CAMYEL BRET, COS-7) in [1] is 8.42; in [2], 8.08; in experiment [3] it was 8.26.
AM(13-52) (peptide): the pEC50 of cAMP signaling, end-point concentration-response (CAMYEL BRET, COS-7) came to 9.48 in experiment [7], 9.52 in experiment [9], 9.63 in experiment [4] and 9.54 in experiment [6].
“βCGRP(1-37) (from UniProt P10092 82-118) (peptide)”: the pEC50 of cAMP signaling, end-point concentration-response (CAMYEL BRET, COS-7) in [10] turned out to be 7.79.
Take KCNTATCATQRLANFLVRSSNNLGPVLPPTNVGSNTY [rat Amylin(1-37)]: the values for the pEC50 of cAMP signaling, end-point concentration-response (CAMYEL BRET, COS-7) in experiment [10] and in experiment [11] were 7.63 and 9.72, respectively.

(Values after article PMC11102832.)
